Legend:
crystal structure = biological target: the molecule itself; assay: crystal structure
cryo-EM structure = biological target: the molecule itself; assay: cryo-EM structure

Row | Protein | binding result (crystal structure) | binding result (cryo-EM structure)
1 | truncated KpFtsZ (residues 11-316) (domain or fragment, Klebsiella pneumoniae, UniProt W9BCK7 11-316, looked up) AVIKVIGVGGGGGNAVEHMVRERIEGVEFFAVNTDAQALRKTAVGQTIQIGSGITKGLGAGANPEVGRNAADEDREALRAALDGADMVFIAAGMGGGTGTGAAPVVAEVAKDLGILTVAVVTKPFNFEGKKRMAFAEQGITELSKHVDSLITIPNDKLLKVLGRGISLLDAFGAANDVLKGAVQGIAELITRPGLMNVDFADVRTVMSEMGYAMMGSGVASGEDRAEEAAEMAISSPLLEDIDLSGARGVLVNITAGFDLRLDEFETVGNTIRAFASDNATVVIGTSLDPDMNDELRVTVVATGIG | binds | 
2 | FtsZ from Klebsiella pneumoniae, full length, tag removed (natural protein, UniProt W9BCK7 1-383, looked up) MFEPMELTNDAVIKVIGVGGGGGNAVEHMVRERIEGVEFFAVNTDAQALRKTAVGQTIQIGSGITKGLGAGANPEVGRNAADEDREALRAALDGADMVFIAAGMGGGTGTGAAPVVAEVAKDLGILTVAVVTKPFNFEGKKRMAFAEQGITELSKHVDSLITIPNDKLLKVLGRGISLLDAFGAANDVLKGAVQGIAELITRPGLMNVDFADVRTVMSEMGYAMMGSGVASGEDRAEEAAEMAISSPLLEDIDLSGARGVLVNITAGFDLRLDEFETVGNTIRAFASDNATVVIGTSLDPDMNDELRVTVVATGIGMDKRPEITLVTNKQVQQPVMDRYQQHGMSPLTQEQKPAAKVVNDNTPQTAKEPDYLDIPAFLRKQAD |  | binds

— publication doi:10.1101/2022.10.05.510932 (bioRxiv, 2022)
